# Reference: IntAct's records for PubMed 24485452
# B1: Golgi phosphoprotein 3 (Homo sapiens), Q9H4A6 (parent)
# chain: MTSLTQRSSGLVQRRTEASRNAADKERAAGGGAGSSEDDAQSRRDEQDDDDKGDSKETRLTLMEEVLLLGLKDREGYTSFWNDCISSGLRGCMLIELALRGRLQLEACGMRRKSLLTRKVICKSDAPTGDVLLDEALKHVKETQPPETVQNWIELLSGETWNPLKLHYQLRNVRERLAKNLVEKGVLTTEKQNFLLFDMTTHPLTNNNIKQRLIKKVQEAVLDKWVNDPHRMDRRLLALIYLAHASDVLENAFAPLLDEQYDLATKRVRQLLDLDPEVECLKANTNEVLWAVVAAFTK
# Variants of: B1
# Conditions: with my18a_human MYO18A
row,Variant,effect of a mutation on the interaction
1,T143D;T148D,increasing interaction strength
2,T143E;T148E,increasing interaction strength
